Consider one protein from article PMC11678472, “Comparative Analysis of Symmetry Parameters in the E2 Inner Core of the Pyruvate Dehydrogenase Complex” (International Journal of Molecular Sciences, 2024).

The data set concerns the molecule itself. Kind of data set: cryo-EM structure; single-particle analysis of purified truncated E2 (4 uL of 100 nM) on a holey carbon grid, vitrified at 4 °C and 100% humidity; 69,946 particles; reconstructed with C1, C5, D2, T and I symmetry (4.93 to 4.20 Å).

B1: truncated dihydrolipoyl acetyltransferase (E2) of the pyruvate dehydrogenase complex of B. stearothermophilus, amino acids 185 to 425 (catalytic core domain … (domain or fragment, Bacillus stearothermophilus, UniProt P11961 185-425, looked up)
chain: AAAKPATTEGEFPETREKMSGIRRAIAKAMVHSKHTAPHVTLMDEADVTKLVAHRKKFKAIAAEKGIKLTFLPYVVKALVSALREYPVLNTSIDDETEEIIQKHYYNIGIAADTDRGLLVPVIKHADRKPIFALAQEINELAEKARDGKLTPGEMKGASCTITNIGSAGGQWFTPVINHPEVAILGIGRIAEKPIVRDGEIVAAPMLALSLSFDHRMIDGATAQKALNHIKRLLSDPELLL
notes: dihydrolipoyl acetyltransferase (E2) of the pyruvate dehydrogenase complex, Bacillus stearothermophilus, UniProt P11961; Forms an icosahedral inner core built of trimeric units; It says only that I symmetry has 60 elements; The monomer runs at about 32 kDa on SDS-PAGE, more than residues 185-425 alone, so tags are probably present; also called truncated E2; E2 inner core complex; source: E. coli …
As for B1, the “stoichiometry N” value was found to be 3.

In general, stoichiometry N refers to the number of molecules, sites or subunits per partner or assembly.
